# Results taken from publication doi:10.1101/2024.01.09.574827, “Discovery and binding mode of small molecule inhibitors of the apo form of human TDO2” (bioRxiv, 2024).
# B1: truncated human apo-TDO2 (aa 39-389) with a C-terminal hexa-histidine tag (enzyme, UniProt P48775 39-389, looked up)
# chain: GLIYGNYLHLEKVLNAQELQSETKGNKIHDEHLFIITHQAYELWFKQILWELDSVREIFQNGHVRDERNMLKVVSRMHRVSVILKLLVQQFSILETMTALDFNDFREYLSPASGFQSLQFRLLENKIGVLQNMRVPYNRRHYRDNFKGEENELLLKSEQEKTLLELVEAWLERTPGLEPHGFNFWGKLEKNITRGLEEEFIRIQAKEESEEKEEQVAEFQKQKEVLLSLFDEKRHEHLLSKGERRLSYRALQGALMIYFYREEPRFQVPFQLLTSLMDIDSLMTKWRYNHVCMVHRMLGSKAGTGGSSGYHYLRSTVSDRYKVFVDLFNLSTYLIPRHWIPKMNPTIHKFL
# notes: human tryptophan-2,3-dioxygenase (TDO2), P48775.1, amino acids 39-389, heme-free (apo) form; S1 Text is said to show additional amino acids introduced as a linker or during subcloning; calculated molecular mass 42940.24 Da; also called tryptophan-2,3-dioxygenase; TDO2 aa39-389-His6; source: E. coli RP523 (hemB mutant, unable to synthesize heme), anaerobic expression, purified (HisTrap, HiTrap Q, …)
# Biological target: the molecule itself
# Experiment: crystal structure; sitting drop vapour diffusion at 293 K; truncated apo-TDO2 with 2 mM AMT, alone or after incubation with 1 mM inhibitor (Rac-1, Cpd-1, Cpd-4)
protein,measurement,value
B1,stoichiometry N,4
